Laboratory results published in PMC7457611 (bioRxiv, 2020).

B1: C105 IgG (antibody, V domains shown)
VH: QVQLVESGGGLIQPGGSLRLSCAASGFTVSSNYMSWVRQAPGKGLEWVSVIYSGGSTYYADSVKGRFTISRDNSKNTLYLQMNSLRAEDTAVYYCARGEGWELPYDYWGQGTLVTVSS
VL: QSALTQPPSASGSPGQSVTISCTGTSSDVGGYKYVSWYQQHPGKAPKLMIYEVSKRPSGVPDRFSGSKSGNTASLTVSGLQAEDEADYYCSSYEGSNNFVVFGGGTKLTVL
B2: C002 IgG (antibody, V domains shown)
VH: EVQLVESGGGVVQPGRSLRLSCAASGFTFSIYGMHWVRQAPGKGLEWVAVISYDGSNKYYADSVKGRFTISRDNSKNTLYLQMNSLRAEDTAVYYCAKEGRPSDIVVVVAFDYWGQGTLVTVSS
VL: not shown
B3: C104 IgG (antibody, V domains shown)
VH: QVQLQQWGAGLLKPSETLSLSCAVYGGSLSGYYWSWIRQPPGKGLEWIGEINHFGSTGYNPSLKSRVTISVDTSKSQFSVKLSSVTAADTAVYYCARKPLLYSNLSPGAFDIWGQGTMVTVSS
VL: EIVLTQSPGTVSLSPGERATLSCWASQSVSASYLAWYQQKPGQAPRLLIYGASSRATGIPDRFSGSGSGTDFTLTISRLEPEDFAVYYCQQYGTTPRTFGGGTKVEIK
B4: C119 IgG (antibody, V domains shown)
VH: QVQLVQSGAEVKKPGASVKVSCKASGYTFTSYYMHWVRQAPGQGLEWMGIINPSGGSTSYAQKLQGRVTMTRDTSTSTVYMELSSLRSEDTAVYYCARANHETTMDTYYYYYYMDVWGKGTTVTVSS
VL: QSALTQPASVSGSPGQSITISCTGTSSDVGGYKYVSWYQRHPGKAPKLMIYDVSNRPSGVSNRFSGSKSGNTASLTISGLQAEDEADYYCSSYTSSSTSVVFGGGTQLTVL
B5: C121 IgG (antibody, V domains shown)
VH: not shown
VL: QSALTQPASVSGSPGQSITISCTGTSSDVGSYNLVSWYQQHPGKAPKLMIYEGSKRPSGVSNRFSGSKSGNTASLTISGLQAEDEADYYCCSYAGSSTLVFGGGTKLTVL
B6: C110 IgG (antibody, V domains shown)
VH: QVQLQQSGAEVKKPGESLKISCKGSGYSFTSYWIGWVRQMPGKGLEWMGIIYPGDSDTRYSPSFQGQVTISADKSISTAYMQWSSLKASDTAMYYCARSFRDDPRIAVAGPADAFDIWGQGTMVTVSS
VL: DIQMTQSPSTLSASVGDRVTITCRASQSISYWLAWYQQKPGKAPKLLIYQASSLESGVPSRFSGSESGTEFTLTISSLQPDDFATYYCQQYNSYPYTFGQGTKLEIK

These binders were tested against SARS-CoV-2 spike receptor-binding domain (RBD), residues 331-524 (SARS-CoV-2, early isolate GenBank …, UniProt P0DTC2) (assay: SPR).
B1: binds.
B2: binds.
B3: binds.
B4: binds.
B5: binds.
B6: binds.
